This note sets out measurements from the RNAGym collection of RNA variant scans (doi:10.1073/pnas.2313332121).

Sequences and labels used below:
B1: TPR t1 (parent)
chain: GACCAAUCUGCCCUCAGAGCUCGAGAACAUCUUCGGAUGCAGAGGAGGCAGGCUUCGGUGGCGCGAUAGCGCCAACGUCCUCAACCUCCAAUGCAUCCCACCACAUGAUGAUGCCUGAAGAGCCUUGGUUUUUUG

The series covers variants of B1. The experiment in a line: polymerase ribozyme fitness, log enrichment relative to wild type (log ratio); higher = more active; in vitro selection for triplet polymerase activity. A digest of the protocol:
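The heterodimeric triplet polymerase ribozyme's subunits were each mutagenized into PCR-built libraries and transcribed. Every library was selected once, in triplicate, by annealing with a biotinylated primer, the partner subunit and triplets, incubating frozen at −7 °C, gel-excising extended constructs, capturing on streptavidin beads and running RT-PCR. Input and output libraries were Illumina-sequenced, with genotypes kept only at ≥10 input reads and ≥1 read per output. Fitness, from inverse-variance-weighted replicate averages, is the base-2 logarithm of genotype enrichment over wild-type enrichment.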
With C11A A95U U96A C101G U106C C124A, the “polymerase ribozyme fitness (log ratio)” value was -3.67.

With G10C C40G C56G G77U U112C, the “polymerase ribozyme fitness (log ratio)” value is -0.0532.

In the case of G10U C70U U78C C82G, the “polymerase ribozyme fitness (log ratio)” value is -2.45.

On to G10U A41C A91U G120C U129C, for which the “polymerase ribozyme fitness (log ratio)” value is -1.99.

For the variant G10U A105C, the “polymerase ribozyme fitness (log ratio)” value is -2.95.

As to G10C A41U A50G, the “polymerase ribozyme fitness (log ratio)” value was -1.93.

On to G10U G113C U125A, for which the “polymerase ribozyme fitness (log ratio)” value is -3.42.

G10U A50U G63A: the “polymerase ribozyme fitness (log ratio)” value is -3.1.

As for G10U C72A C124G, the “polymerase ribozyme fitness (log ratio)” value turned out to be 1.

On to G10U C56U G117C G122U, for which the “polymerase ribozyme fitness (log ratio)” value was -3.32.

With G10C A18C C62U U133A, the “polymerase ribozyme fitness (log ratio)” value is -3.86.

Take G10U G69U U112G C123G: the “polymerase ribozyme fitness (log ratio)” value came to 1.15.

Turning to G10C A66C C79U, the “polymerase ribozyme fitness (log ratio)” value was -2.72.

In the case of G10U G93A, the “polymerase ribozyme fitness (log ratio)” value is -0.609.

In the case of G10U C40G G52C C98U C123U, the “polymerase ribozyme fitness (log ratio)” value was -2.05.

As for C11A C13U G63U, the “polymerase ribozyme fitness (log ratio)” value is -2.94.

Take G10U G52U G61U G127A: the “polymerase ribozyme fitness (log ratio)” value was -2.92.

In the case of G10U C20A, the “polymerase ribozyme fitness (log ratio)” value is -3.25.

Turning to G10U C13G G120C, the “polymerase ribozyme fitness (log ratio)” value amounted to 1.66.

As to G10U C40A G77A G128U, the “polymerase ribozyme fitness (log ratio)” value is -3.6.

In the case of G10U A37U C102G C115A, the “polymerase ribozyme fitness (log ratio)” value was -6.5.

Turning to G10U U30C C124G, the “polymerase ribozyme fitness (log ratio)” value was -2.38.

With G10C C49G G61A U112A A118U, the “polymerase ribozyme fitness (log ratio)” value came out at 1.17.

For C11A A37U G51U C56U A68U C98A U109A, the “polymerase ribozyme fitness (log ratio)” value is -8.64.

Turning to G10U A37C C53G A95G, the “polymerase ribozyme fitness (log ratio)” value is -0.638.

For G10C C13U U78G C79U C89U, the “polymerase ribozyme fitness (log ratio)” value is -0.171.

As for G10U C11A C13G G19A G57U A90G A91U, the “polymerase ribozyme fitness (log ratio)” value was -2.55.

On to G10U C49U G63A A100C, for which the “polymerase ribozyme fitness (log ratio)” value was -3.83.

On to G10U G51C, for which the “polymerase ribozyme fitness (log ratio)” value is -3.01.

Consider G10U G51A, for which the “polymerase ribozyme fitness (log ratio)” value is -2.56.

Consider C11A A41U G47A U109A, for which the “polymerase ribozyme fitness (log ratio)” value was -5.79.

With G10C G42C G61C C123A G128A, the “polymerase ribozyme fitness (log ratio)” value is -6.33.

Regarding G10C G42C C123A G128A, the “polymerase ribozyme fitness (log ratio)” value is -2.91.

For G10C A50G G69U C89A A121U, the “polymerase ribozyme fitness (log ratio)” value was 0.925.

G10U C20A C56U: the “polymerase ribozyme fitness (log ratio)” value was -2.94.

As to G10C C13G C94A, the “polymerase ribozyme fitness (log ratio)” value was -0.274.

Regarding G10U A50U C89G, the “polymerase ribozyme fitness (log ratio)” value was -2.96.

On to G10C C49G U55G C94A, for which the “polymerase ribozyme fitness (log ratio)” value is -3.2.

Take G10U C56G A68G: the “polymerase ribozyme fitness (log ratio)” value was -4.36.

Take G10U G42U C89U: the “polymerase ribozyme fitness (log ratio)” value was -1.96.

For the variant G10C G45A C104A, the “polymerase ribozyme fitness (log ratio)” value was -2.44.

As to G10C C62A U78C, the “polymerase ribozyme fitness (log ratio)” value was -1.58.

Turning to G10U C15U G69U A91C U125A, the “polymerase ribozyme fitness (log ratio)” value was -3.03.

In the case of G10C A50C G69U G110A G113C, the “polymerase ribozyme fitness (log ratio)” value is -6.42.

Take G10U A18U A29U U54A C73A A121C: the “polymerase ribozyme fitness (log ratio)” value was -1.7.

On to G10C C49G G61A U81C G120C, for which the “polymerase ribozyme fitness (log ratio)” value is -4.13.

Take G10C A27G A43U G110U: the “polymerase ribozyme fitness (log ratio)” value is -5.07.

For G10U U32G C102U C124U U126G, the “polymerase ribozyme fitness (log ratio)” value is -7.39.

In the case of G10U C12U C82A A84G, the “polymerase ribozyme fitness (log ratio)” value was -0.497.

In the case of G10C G71U, the “polymerase ribozyme fitness (log ratio)” value was -1.91.

Turning to G10C A26G C62G, the “polymerase ribozyme fitness (log ratio)” value was -4.17.

Turning to G10U G48U G93A, the “polymerase ribozyme fitness (log ratio)” value was -1.17.

With G10U G42A G45U, the “polymerase ribozyme fitness (log ratio)” value is -3.02.

C11A C13U G63C A83U: the “polymerase ribozyme fitness (log ratio)” value was -1.91.

Take G10U C15G U21A A90G G93U G120C G135U: the “polymerase ribozyme fitness (log ratio)” value is -3.07.

G10U C40G G48U C102U: the “polymerase ribozyme fitness (log ratio)” value was -3.36.

Regarding G10U G23A U30G U32A G35U G51A C70G, the “polymerase ribozyme fitness (log ratio)” value was -6.22.

In the case of G10U C20A A50C C72U C114U, the “polymerase ribozyme fitness (log ratio)” value was -4.68.

Regarding G10U G42U A91C U106A U112A, the “polymerase ribozyme fitness (log ratio)” value is -0.271.

Consider G10U G122A, for which the “polymerase ribozyme fitness (log ratio)” value was 0.462.

As for G10C C64U A121U U131A, the “polymerase ribozyme fitness (log ratio)” value stood at 1.16.

As for G10C C49G U81C G120C, the “polymerase ribozyme fitness (log ratio)” value is -4.69.

As for C11A C28U C53U C89A, the “polymerase ribozyme fitness (log ratio)” value is -5.79.

Take G10C C34A C124A: the “polymerase ribozyme fitness (log ratio)” value is -3.03.

As to G10C C11U A84U A108G, the “polymerase ribozyme fitness (log ratio)” value was -2.5.

For G10U G17U C56U U109A G110C A118G C123A, the “polymerase ribozyme fitness (log ratio)” value was -6.9.

With G10U C88U, the “polymerase ribozyme fitness (log ratio)” value was -0.654.

For the variant G10C A108C C114G, the “polymerase ribozyme fitness (log ratio)” value is -5.74.

On to G10C C20A U54A C64U C88G A118U, for which the “polymerase ribozyme fitness (log ratio)” value is -2.75.

G10C C56G C123U: the “polymerase ribozyme fitness (log ratio)” value amounted to 1.26.

G10C U32C C114U: the “polymerase ribozyme fitness (log ratio)” value is -0.699.

Consider C11A C22G G48A C72G A119G, for which the “polymerase ribozyme fitness (log ratio)” value was -4.64.

As for G10U U92A A111G, the “polymerase ribozyme fitness (log ratio)” value is -4.02.

Regarding G10U C40G U96G, the “polymerase ribozyme fitness (log ratio)” value was -4.29.

Regarding G10C C70U, the “polymerase ribozyme fitness (log ratio)” value was -1.63.

As to G10U C20U A43C A50C C79G C88U A121G, the “polymerase ribozyme fitness (log ratio)” value was -4.86.

Regarding G10C U32C G113U, the “polymerase ribozyme fitness (log ratio)” value is -3.81.

Regarding G10U G93U U129C, the “polymerase ribozyme fitness (log ratio)” value is -1.98.

Consider G10U C40G G44C A111C, for which the “polymerase ribozyme fitness (log ratio)” value was -4.09.

On to G10C C20A A29C G58U G60A C85U, for which the “polymerase ribozyme fitness (log ratio)” value was -6.83.

For G10U C22G U106A G120C, the “polymerase ribozyme fitness (log ratio)” value was -2.7.

Regarding G10C C34U A43U C101G G107C, the “polymerase ribozyme fitness (log ratio)” value is -7.66.

As to G10U A27C G44C G69U C88G G93A C114A, the “polymerase ribozyme fitness (log ratio)” value is -6.93.

Take C11A C13U G60C A100C U132C: the “polymerase ribozyme fitness (log ratio)” value is -2.62.
